Key:
[1] = target: VP5 CT fragment from sequential chymotrypsin-trypsin digestion of VP4 Rhod5F (rhesus rotavirus (RRV)); assay: SDS-PAGE of unboiled and boiled samples; VP4 469C-Rhod5F digested with chymotrypsin (37°C, 30 min) then trypsin (room temperature, 1 h); reducing sample buffer (200 mM DTT), boiled at 95°C for 3 min or kept at room temperature for 3 min; 5-to-20% gradient gel, UV light and Coomassie blue
[2] = target: T1, wild-type recombinant VP4 labeled with pHrodo Red succinimidyl ester (rhesus rotavirus (RRV), UniProt P12473 1-776, pHrodo Red succinimidyl ester, 1 dye molecule per 2 VP4 monomers (residues not stated)); assay: co-sedimentation; recoating of labeled DLP: 100 mM sodium acetate pH 5.2, VP4 at 0.9 mg/ml (~33-fold excess) 1 h at room temperature, then VP7 in 2.3-fold excess with 1 mM CaCl2 for 1 h; recoated particles separated from excess components by cesium chloride gradient centrifugation; dyes seen on single particles by confocal imaging; conditions: both partners purified
T1 construct: VP4, outer layer spike protein of rhesus rotavirus (RRV), wild type; also called VP4-pHrodo Red; wt VP4; source: Sf9 cells infected with a baculovirus vector, purified (ammonium sulfate, Phenyl HP, HiTrap Q, S200)

[3] = target: T2, VP4 mutated at position 469 from serine to cysteine (rhesus rotavirus (RRV), UniProt P12473 1-776, S469C); assay: as above; conditions: both partners purified
T2 construct: VP4, outer layer spike protein of rhesus rotavirus (RRV), with S469C; Unlabeled during recoating; It was labeled on the purified rcTLP afterwards with DBCO-maleimide and Rhod5F azide; also called VP4 469C; S469C; source: Sf9 cells infected with a baculovirus vector, purified (ammonium sulfate, Phenyl HP, HiTrap Q, S200)

[4] = target: T3, wild-type recombinant VP4 labeled with Atto 565 NHS ester (rhesus rotavirus (RRV), UniProt P12473 1-776, Atto 565 NHS ester, about 1 dye molecule per VP4 monomer (residues not stated)); assay: as above; conditions: both partners purified
T3 construct: VP4, outer layer spike protein of rhesus rotavirus (RRV), wild type; also called VP4-565; rVP4; source: Sf9 cells infected with a baculovirus vector, purified (ammonium sulfate, Phenyl HP, HiTrap Q, S200)

With “VP5 CT fragment from sequential chymotrypsin-trypsin digestion of VP4 Rhod5F (domain or fragment)” as the molecule, how does the stoichiometry N [1] read?
The stoichiometry N was 3.

B1: Atto 488 NHS ester-labeled VP7 (natural protein)
chain: QNYGINLPITGSMDTAYANSTQEETFLTSTLCLYYPTEAATEINDNSWKDTLSQLFLTKGWPTGSVYFKEYTDIASFSVDPQLYCDYNVVLMKYDATLQLDMSELADLILNEWLCNPMDITLYYYQQTDEANKWISMGSSCTIKVCPLNTQTLGIGCLTTDTATFEEVATAEKLVITDVVDGVNHKLDVTTATCTIRNCKKLGPRENVAVIQVGGSDVLDITADPTTAPQTERMMRINWKKWWQVFYTVVDYVNQIIQAMSKRSRSLNSAAFYYRI
modifications: Atto 488 NHS ester (residues not stated)
notes: VP7, Ca2+-stabilized outer layer protein of rhesus rotavirus (RRV); also called VP7-488
Does B1 bind [2]?
Result: binds

Does B1 bind [3]?
Result: binds

Does B1 bind [4]?
Result: binds

Reference: PMC6258952, “Visualization of Calcium Ion Loss from Rotavirus during Cell Entry” (Journal of Virology, 2018)
